The source of these data is paper PMC9482650, “Quantitative fragmentomics allow affinity mapping of interactomes” (Nature Communications, 2022).

Usually pKd stands for the Kd on a negative log10 scale, so that one unit is a factor of ten.

Among the targets are GRIP2_4, Q9C0E4; LIMK2, P53671; Inadl_3, Q8NI35; IL16_3, Q14005; DLG1_1, Q12959; MAGI2_4, Q86UL8; MAGI1_1, Q96QZ7; DLG5_1, Q8TDM6; FRMPD2_1, Q68DX3; Inadl_8, Q8NI35; NHERF4_1, Q86UT5-2; SCRIB_3, Q14160.
Holding throughout (assay): holdup assay
Set-up in all cases: key: below the threshold = too weak to quantify, mostly under pKd 3.1 to 4

For another assay, the target named is T1, DFNB31_2, Q9P202.
T1 sequence (Q9P202 274-371, limits assumed, looked up): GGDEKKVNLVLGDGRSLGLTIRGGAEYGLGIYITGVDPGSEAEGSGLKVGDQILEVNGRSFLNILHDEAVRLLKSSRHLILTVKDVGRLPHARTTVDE

The next assay concerns the target T2, DLG3_1, Q92796.
T2 sequence (Q92796 125-227, limits assumed, looked up): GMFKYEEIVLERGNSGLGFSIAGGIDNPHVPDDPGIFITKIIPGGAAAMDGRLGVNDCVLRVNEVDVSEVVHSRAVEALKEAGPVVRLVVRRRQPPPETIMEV

Another assay deals with T3, GRIP1_4, Q9Y3R0.
T3 sequence (Q9Y3R0 467-571, limits assumed, looked up): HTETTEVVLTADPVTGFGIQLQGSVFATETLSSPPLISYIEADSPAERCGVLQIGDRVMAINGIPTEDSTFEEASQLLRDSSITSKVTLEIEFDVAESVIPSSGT

Another assay concerns the target T4, MPDZ_12, O75970.
T4 sequence (O75970 1857-1958, limits assumed, looked up): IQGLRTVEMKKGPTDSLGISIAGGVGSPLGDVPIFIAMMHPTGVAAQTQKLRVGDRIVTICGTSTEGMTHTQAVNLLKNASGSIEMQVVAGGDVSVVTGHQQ

In another assay the target is T5, SNTG2, Q9NY99.
T5 sequence (Q9NY99 68-166, limits assumed, looked up): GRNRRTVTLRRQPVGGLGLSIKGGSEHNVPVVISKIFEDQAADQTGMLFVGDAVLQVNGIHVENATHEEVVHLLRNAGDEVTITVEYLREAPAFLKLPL

Another assay concerns the target T6, DFNB31_1, Q9P202.
T6 sequence (Q9P202 135-233, limits assumed, looked up): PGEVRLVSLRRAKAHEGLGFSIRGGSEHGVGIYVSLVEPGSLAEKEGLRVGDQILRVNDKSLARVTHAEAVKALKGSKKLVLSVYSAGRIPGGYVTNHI

For a further assay, the target named is T7, MPDZ_10, O75970.
T7 sequence (O75970 1624-1722, limits assumed, looked up): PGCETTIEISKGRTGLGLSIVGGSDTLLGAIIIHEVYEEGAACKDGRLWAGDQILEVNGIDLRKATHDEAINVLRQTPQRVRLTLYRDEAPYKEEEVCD

A further assay has as its target T8, LNX2_2, Q8N448.
T8 sequence (Q8N448 334-432, limits assumed, looked up): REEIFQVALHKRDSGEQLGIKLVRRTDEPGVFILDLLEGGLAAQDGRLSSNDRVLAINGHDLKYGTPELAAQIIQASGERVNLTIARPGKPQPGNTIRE

Another assay has as its target T9, TX1BP3, O14907.
T9 sequence (O14907 10-122, limits assumed, looked up): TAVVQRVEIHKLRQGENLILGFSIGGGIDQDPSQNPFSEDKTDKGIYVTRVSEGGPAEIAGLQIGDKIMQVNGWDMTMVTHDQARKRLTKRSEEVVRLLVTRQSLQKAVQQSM

In the next assay the target is T10, PDZD2_2, O15018.
T10 sequence (O15018 329-429, limits assumed, looked up): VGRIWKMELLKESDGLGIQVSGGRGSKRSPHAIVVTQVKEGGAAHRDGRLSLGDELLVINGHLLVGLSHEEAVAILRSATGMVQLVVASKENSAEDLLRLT

A further assay has as its target T11, CARD11, Q9BXL7.
T11 sequence (Q9BXL7 662-765, limits assumed, looked up): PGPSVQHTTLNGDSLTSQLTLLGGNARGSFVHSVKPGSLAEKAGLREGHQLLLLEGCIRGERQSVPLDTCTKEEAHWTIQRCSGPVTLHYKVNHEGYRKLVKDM

The next assay deals with T12, RADIL, Q96JH8.
T12 sequence (Q96JH8 971-1071, limits assumed, looked up): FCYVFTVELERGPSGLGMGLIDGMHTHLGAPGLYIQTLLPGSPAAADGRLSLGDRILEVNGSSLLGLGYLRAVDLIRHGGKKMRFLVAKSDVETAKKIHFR

Setting [1] is: plain residues with an end cap or a label only (N-terminal biotin on a linker: ttds).
The mark [2] stands for this setting: plain residues with an end cap or a label only (N-terminal biotin on a linker: ahx).

Sequence of Inadl_3, Q8NI35 (Q8NI35 359-469): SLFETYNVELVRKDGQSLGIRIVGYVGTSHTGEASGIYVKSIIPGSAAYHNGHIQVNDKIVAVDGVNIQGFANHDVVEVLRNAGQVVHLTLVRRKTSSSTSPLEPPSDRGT
Sequence of NHERF4_1, Q86UT5-2 (Q86UT5 other isoform, or with tags, fused parts or gaps): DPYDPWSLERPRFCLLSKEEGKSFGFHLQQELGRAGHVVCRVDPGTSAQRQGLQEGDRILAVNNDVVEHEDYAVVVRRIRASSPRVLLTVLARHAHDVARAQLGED
Sequence of MAGI1_1, Q96QZ7 (Q96QZ7 1-106): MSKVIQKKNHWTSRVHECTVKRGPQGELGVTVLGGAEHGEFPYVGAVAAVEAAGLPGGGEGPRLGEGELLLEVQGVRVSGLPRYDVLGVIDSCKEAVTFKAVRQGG
Sequence of MAGI2_4, Q86UL8 (Q86UL8 772-865): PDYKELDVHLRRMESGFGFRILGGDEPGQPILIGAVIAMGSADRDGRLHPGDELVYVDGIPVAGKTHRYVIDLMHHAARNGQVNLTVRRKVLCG
Sequence of FRMPD2_1, Q68DX3 (Q68DX3 770-861): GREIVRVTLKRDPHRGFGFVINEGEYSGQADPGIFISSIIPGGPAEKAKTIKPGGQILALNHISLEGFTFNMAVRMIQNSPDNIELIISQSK
Sequence of GRIP2_4, Q9C0E4 (Q9C0E4 446-548): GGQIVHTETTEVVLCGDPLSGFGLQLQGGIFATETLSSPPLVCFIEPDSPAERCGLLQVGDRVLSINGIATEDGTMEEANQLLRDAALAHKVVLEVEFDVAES
Sequence of IL16_3, Q14005 (Q14005 1107-1207): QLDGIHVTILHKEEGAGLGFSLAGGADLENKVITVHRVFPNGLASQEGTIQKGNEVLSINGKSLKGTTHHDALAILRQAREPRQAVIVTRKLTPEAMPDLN
Sequence of Inadl_8, Q8NI35 (Q8NI35 1425-1530): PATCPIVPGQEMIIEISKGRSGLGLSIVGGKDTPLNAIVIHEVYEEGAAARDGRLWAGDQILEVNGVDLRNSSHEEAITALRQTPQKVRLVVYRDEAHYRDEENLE
Sequence of SCRIB_3, Q14160 (Q14160 999-1103): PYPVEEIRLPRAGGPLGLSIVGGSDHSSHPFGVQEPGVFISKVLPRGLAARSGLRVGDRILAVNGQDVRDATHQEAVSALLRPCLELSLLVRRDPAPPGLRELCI
Sequence of DLG5_1, Q8TDM6 (Q8TDM6 617-713): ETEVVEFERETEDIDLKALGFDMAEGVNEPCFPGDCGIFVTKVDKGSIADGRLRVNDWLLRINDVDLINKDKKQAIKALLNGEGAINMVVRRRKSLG
Sequence of LIMK2, P53671 (P53671 143-248): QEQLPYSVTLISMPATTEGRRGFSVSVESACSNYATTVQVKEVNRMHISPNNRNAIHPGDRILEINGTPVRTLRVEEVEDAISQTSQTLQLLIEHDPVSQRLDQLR

Consider SHSSKGETAV [FZD7, O75084], for which the pKd result in the assay with DFNB31_2, Q9P202 (setting [1]) is “below the threshold”; with DLG3_1, Q92796 (setting [1]), 4.01; with GRIP1_4, Q9Y3R0 (setting [1]), “below the threshold”; with GRIP2_4, Q9C0E4 (setting [1]), “below the threshold”; with MPDZ_12, O75970 (setting [1]), “below the threshold”; in the assay with SNTG2, Q9NY99 (setting [1]), “below the threshold”. Further, the pKd is 3.65 in the assay with DFNB31_1, Q9P202 (setting [1]); “below the threshold” in the assay with MPDZ_10, O75970 (setting [1]); “below the threshold” with LIMK2, P53671 (setting [1]); “below the threshold” with Inadl_3, Q8NI35 (setting [1]); “below the threshold” with IL16_3, Q14005 (setting [1]); 4.72 with DLG1_1, Q12959 (setting [1]). Further, the pKd entry in the assay with LNX2_2, Q8N448 (setting [1]) is “below the threshold”; with MAGI2_4, Q86UL8 (setting [1]), “below the threshold”; in the assay with MAGI1_1, Q96QZ7 (setting [1]), “below the threshold”; with TX1BP3, O14907 (setting [1]) it was 3.89; with PDZD2_2, O15018 (setting [1]), 4.09; with CARD11, Q9BXL7 (setting [1]), 3.67. The pKd entry with DLG5_1, Q8TDM6 (setting [1]) is “below the threshold”; in the assay with FRMPD2_1, Q68DX3 (setting [1]), 3.8; in the assay with Inadl_8, Q8NI35 (setting [1]), “below the threshold”; in the assay with NHERF4_1, Q86UT5-2 (setting [1]) it was “below the threshold”; with RADIL, Q96JH8 (setting [1]) it was “below the threshold”; with SCRIB_3, Q14160 (setting [1]) it was 4.78.

On to KEYDDELTFF [USH1C, Q9Y6N9], for which the pKd entry with DFNB31_2, Q9P202 (setting [2]) is listed as “below the threshold”; with DLG3_1, Q92796 (setting [2]), “below the threshold”; with GRIP1_4, Q9Y3R0 (setting [2]) it was “below the threshold”; with GRIP2_4, Q9C0E4 (setting [2]), “below the threshold”; in the assay with MPDZ_12, O75970 (setting [2]), “below the threshold”; with SNTG2, Q9NY99 (setting [2]), “below the threshold”. The pKd entry was “below the threshold” in the assay with DFNB31_1, Q9P202 (setting [2]); “below the threshold” with MPDZ_10, O75970 (setting [2]); “below the threshold” with LIMK2, P53671 (setting [2]); 3.89 in the assay with Inadl_3, Q8NI35 (setting [2]); “below the threshold” with IL16_3, Q14005 (setting [2]); “below the threshold” with DLG1_1, Q12959 (setting [2]). Besides, the pKd result with LNX2_2, Q8N448 (setting [2]) was “below the threshold”; with MAGI2_4, Q86UL8 (setting [2]) it was 3.51; with MAGI1_1, Q96QZ7 (setting [2]), “below the threshold”; with TX1BP3, O14907 (setting [2]), “below the threshold”; with PDZD2_2, O15018 (setting [2]), 3.75; with CARD11, Q9BXL7 (setting [2]), “below the threshold”. In addition, the pKd entry with DLG5_1, Q8TDM6 (setting [2]) is “below the threshold”; with FRMPD2_1, Q68DX3 (setting [2]) it was “below the threshold”; with Inadl_8, Q8NI35 (setting [2]), “below the threshold”; with NHERF4_1, Q86UT5-2 (setting [2]), 3.6; in the assay with RADIL, Q96JH8 (setting [2]), 3.78; with SCRIB_3, Q14160 (setting [2]) it was 3.61.

With KLVIKTETTV [RASSF6, Q6ZTQ3], the pKd entry was “below the threshold” with DFNB31_2, Q9P202 (setting [1]); 4.52 with DLG3_1, Q92796 (setting [1]); “below the threshold” with GRIP1_4, Q9Y3R0 (setting [1]); “below the threshold” with GRIP2_4, Q9C0E4 (setting [1]); “below the threshold” in the assay with MPDZ_12, O75970 (setting [1]); 3.99 with SNTG2, Q9NY99 (setting [1]). The pKd entry with DFNB31_1, Q9P202 (setting [1]) is “below the threshold”; with MPDZ_10, O75970 (setting [1]), “below the threshold”; in the assay with LIMK2, P53671 (setting [1]), “below the threshold”; with Inadl_3, Q8NI35 (setting [1]) it was “below the threshold”; in the assay with IL16_3, Q14005 (setting [1]), “below the threshold”; with DLG1_1, Q12959 (setting [1]), 4.88. Also, the negative-log Kd (pKd) with LNX2_2, Q8N448 (setting [1]) was 4.48; with MAGI2_4, Q86UL8 (setting [1]) it was 4.45; in the assay with MAGI1_1, Q96QZ7 (setting [1]) it was “below the threshold”; with TX1BP3, O14907 (setting [1]) it was 3.72; with PDZD2_2, O15018 (setting [1]), 3.65; with CARD11, Q9BXL7 (setting [1]) it was “below the threshold”. Besides, the pKd entry with DLG5_1, Q8TDM6 (setting [1]) was “below the threshold”; with FRMPD2_1, Q68DX3 (setting [1]), “below the threshold”; with Inadl_8, Q8NI35 (setting [1]), “below the threshold”; with NHERF4_1, Q86UT5-2 (setting [1]), “below the threshold”; with RADIL, Q96JH8 (setting [1]), “below the threshold”; with SCRIB_3, Q14160 (setting [1]), 4.3.

Turning to PFRSRSPSEV [GPR6, P46095], the negative logarithm of the Kd (pKd) result is “below the threshold” with DFNB31_2, Q9P202 (setting [1]); “below the threshold” in the assay with DLG3_1, Q92796 (setting [1]); “below the threshold” in the assay with GRIP1_4, Q9Y3R0 (setting [1]); “below the threshold” with GRIP2_4, Q9C0E4 (setting [1]); “below the threshold” in the assay with MPDZ_12, O75970 (setting [1]); “below the threshold” with SNTG2, Q9NY99 (setting [1]). Moreover, the pKd result is reported as “below the threshold” in the assay with DFNB31_1, Q9P202 (setting [1]); “below the threshold” in the assay with MPDZ_10, O75970 (setting [1]); “below the threshold” in the assay with LIMK2, P53671 (setting [1]); “below the threshold” with Inadl_3, Q8NI35 (setting [1]); “below the threshold” with IL16_3, Q14005 (setting [1]); “below the threshold” in the assay with DLG1_1, Q12959 (setting [1]). Besides, the pKd entry was “below the threshold” in the assay with LNX2_2, Q8N448 (setting [1]); “below the threshold” in the assay with MAGI2_4, Q86UL8 (setting [1]); “below the threshold” in the assay with MAGI1_1, Q96QZ7 (setting [1]); 3.61 with TX1BP3, O14907 (setting [1]); 3.8 with PDZD2_2, O15018 (setting [1]); “below the threshold” with CARD11, Q9BXL7 (setting [1]). Besides, the pKd result with DLG5_1, Q8TDM6 (setting [1]) was “below the threshold”; with FRMPD2_1, Q68DX3 (setting [1]), “below the threshold”; in the assay with Inadl_8, Q8NI35 (setting [1]), 4.04; with NHERF4_1, Q86UT5-2 (setting [1]), “below the threshold”; with RADIL, Q96JH8 (setting [1]), “below the threshold”; with SCRIB_3, Q14160 (setting [1]), 3.49.
